The values below come from paper PMC10483886 (Molecular cell, 2023).

This assay has as its target T1, His-Flag-DBR1 (human, UniProt Q9UK59 1-544).
T1 sequence (looked up): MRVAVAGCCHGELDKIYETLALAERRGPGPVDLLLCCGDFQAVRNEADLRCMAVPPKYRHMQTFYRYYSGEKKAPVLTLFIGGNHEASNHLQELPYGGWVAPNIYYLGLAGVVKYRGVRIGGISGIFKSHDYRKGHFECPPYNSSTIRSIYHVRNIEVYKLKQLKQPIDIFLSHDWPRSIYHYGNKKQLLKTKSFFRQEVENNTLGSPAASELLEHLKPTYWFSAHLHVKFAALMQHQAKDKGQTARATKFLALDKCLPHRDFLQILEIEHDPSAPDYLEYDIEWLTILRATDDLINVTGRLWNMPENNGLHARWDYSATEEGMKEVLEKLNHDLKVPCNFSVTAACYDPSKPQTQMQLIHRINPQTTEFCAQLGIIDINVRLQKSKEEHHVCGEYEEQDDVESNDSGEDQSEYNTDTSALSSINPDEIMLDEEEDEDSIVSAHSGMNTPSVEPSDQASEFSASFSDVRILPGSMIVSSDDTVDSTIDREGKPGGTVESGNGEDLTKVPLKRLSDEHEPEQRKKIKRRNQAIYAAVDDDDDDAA
Briefly: pull-down.

B1: GST-TTDN1 (natural protein, human, UniProt Q8TAP9 1-179, looked up)
chain: MQRQNFRPPTPPYPGPGGGGWGSGSSFRGTPGGGGPRPPSPRDGYGSPHHTPPYGPRSRPYGSSHSPRHGGSFPGGRFGSPSPGGYPGSYSRSPAGSQQQFGYSPGQQQTHPQGSPRTSTPFGSGRVREKRMSNELENYFKPSMLEDPWAGLEPVSVVDISQQYSNTQTFTGKKGRYFC
On to B1, for which the binding result is “binds”.
